# Values of other authors in PMC5342242.
# pKd: −log10 of the molar value. Like-named read-outs stand apart in the source and are kept apart here.
# Legend:
# [1] = molecular target: DNA polymerase III α subunit 917-1160 (Escherichia coli) (UniProt P10443); assay: tryptophan fluorescence
# [2] = molecular target: DNA polymerase III α subunit 1-280 (Escherichia coli) (UniProt P10443); assay: tryptophan fluorescence
# [3] = molecular target: DNA polymerase III α subunit (Escherichia coli) (UniProt P10443); assay: tryptophan fluorescence
# [4] = molecular target: DNA pol III alpha 917-1160 (Escherichia coli) (UniProt P10443)
# [5] = molecular target: DNA pol III alpha 1-280 (Escherichia coli) (UniProt P10443)
# [6] = molecular target: DNA pol III alpha (Escherichia coli) (UniProt P10443)
# [7] = molecular target: DNA pol III alpha 917-1160 (Escherichia coli) (UniProt P10443); remark: listed apart in the source
# Sequence of DNA polymerase III α subunit 917-1160 (Escherichia coli) (P10443 917-1160): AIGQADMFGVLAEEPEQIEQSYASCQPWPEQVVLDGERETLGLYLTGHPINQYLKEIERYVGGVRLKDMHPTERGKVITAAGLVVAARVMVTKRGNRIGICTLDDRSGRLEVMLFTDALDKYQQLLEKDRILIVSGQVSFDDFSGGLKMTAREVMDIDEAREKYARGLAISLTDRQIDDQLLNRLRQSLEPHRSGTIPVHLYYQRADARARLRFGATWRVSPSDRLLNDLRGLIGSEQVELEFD
# Sequence of DNA polymerase III α subunit (Escherichia coli) (P10443 whole entry): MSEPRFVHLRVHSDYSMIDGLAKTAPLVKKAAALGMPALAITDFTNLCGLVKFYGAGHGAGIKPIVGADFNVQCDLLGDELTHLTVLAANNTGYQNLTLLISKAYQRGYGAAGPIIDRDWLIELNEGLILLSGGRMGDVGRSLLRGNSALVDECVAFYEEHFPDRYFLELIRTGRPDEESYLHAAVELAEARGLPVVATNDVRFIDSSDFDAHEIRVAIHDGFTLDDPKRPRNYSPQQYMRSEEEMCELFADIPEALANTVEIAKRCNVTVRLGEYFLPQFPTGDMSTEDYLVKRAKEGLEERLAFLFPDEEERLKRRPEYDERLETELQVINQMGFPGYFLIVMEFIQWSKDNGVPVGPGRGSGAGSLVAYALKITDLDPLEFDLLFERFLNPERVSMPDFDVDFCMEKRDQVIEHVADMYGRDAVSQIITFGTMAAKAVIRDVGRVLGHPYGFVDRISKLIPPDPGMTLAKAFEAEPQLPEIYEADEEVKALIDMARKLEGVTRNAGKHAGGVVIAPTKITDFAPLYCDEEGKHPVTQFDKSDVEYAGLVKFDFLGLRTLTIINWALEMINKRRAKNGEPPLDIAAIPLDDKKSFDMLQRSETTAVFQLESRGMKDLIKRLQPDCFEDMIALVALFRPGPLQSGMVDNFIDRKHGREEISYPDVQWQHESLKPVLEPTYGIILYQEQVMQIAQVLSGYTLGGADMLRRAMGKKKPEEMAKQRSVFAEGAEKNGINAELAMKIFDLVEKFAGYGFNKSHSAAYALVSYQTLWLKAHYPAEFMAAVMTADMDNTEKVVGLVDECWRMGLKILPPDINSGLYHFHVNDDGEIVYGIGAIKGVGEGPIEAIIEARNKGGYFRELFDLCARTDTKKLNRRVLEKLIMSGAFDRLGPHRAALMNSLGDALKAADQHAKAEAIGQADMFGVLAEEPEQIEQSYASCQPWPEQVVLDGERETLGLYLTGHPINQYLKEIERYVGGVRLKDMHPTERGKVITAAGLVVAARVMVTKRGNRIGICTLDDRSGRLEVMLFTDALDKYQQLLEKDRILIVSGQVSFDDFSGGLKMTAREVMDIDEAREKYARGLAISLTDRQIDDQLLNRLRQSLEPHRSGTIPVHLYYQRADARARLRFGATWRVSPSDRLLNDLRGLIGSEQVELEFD
# Sequence of UmuD' (P0AG11 25-139): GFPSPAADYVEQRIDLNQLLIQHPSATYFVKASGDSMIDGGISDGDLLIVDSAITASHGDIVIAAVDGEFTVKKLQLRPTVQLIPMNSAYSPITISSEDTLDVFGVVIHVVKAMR
# Sequence of UmuD (P0AG11 25-139): as above
# Sequence of DNA polymerase III α subunit 1-280 (Escherichia coli) (P10443 1-280): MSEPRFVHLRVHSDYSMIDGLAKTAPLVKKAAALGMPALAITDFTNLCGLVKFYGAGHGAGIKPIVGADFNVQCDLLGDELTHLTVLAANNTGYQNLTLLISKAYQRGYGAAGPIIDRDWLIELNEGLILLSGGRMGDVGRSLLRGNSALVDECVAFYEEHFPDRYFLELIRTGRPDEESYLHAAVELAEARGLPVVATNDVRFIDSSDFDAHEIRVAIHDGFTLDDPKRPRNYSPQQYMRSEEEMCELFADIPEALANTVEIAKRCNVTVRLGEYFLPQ
# Sequence of DNA pol III alpha 917-1160 (Escherichia coli) (P10443 917-1160): as the sequence (P10443 917-1160) above
# Sequence of DNA pol III alpha (Escherichia coli) (P10443 whole entry): as the sequence (P10443 whole entry) above
# Sequence of DNA pol III alpha 1-280 (Escherichia coli) (P10443 1-280): as the sequence (P10443 1-280) above
pKd [1],pKd [2],pKd [3],pKd [4],pKd [5],pKd [6],pKd [7],Substance
4.86,5.14,5.96,6.15,,,,UmuD (from UniProt P0AG11)
6.15,4.99,4.97,,,,,UmuD S60A (from UniProt P0AG11)
5.47,5.03,5.06,,,,,UmuD 3A (from UniProt P0AG11)
,,,,5.07,4.96,5.42,UmuD' (from UniProt P0AG11)
